Results reported in patent US10501502B2, “Allophycocyanin alpha-subunit evolved labeling proteins (smURFPs)” (The Regents of the University of California, priority 2016, dated 2019).

Tests used:
[1] = tested on: HEK293A cells; test: Fluorescence imaging of FPs in HEK293A cells with chromophore addition or HO-1 expression; assay type: cell-based; settings: smURFP/TDsmURFP in HEK293A cells
Source text: smURFP codons were optimized for human cell expression, and the gene was created by GenScript. smURFP, TDsmURFP (created from mammalian-optimized smURFP), IFP1.4 (mammalian-optimized form^35), IFP2.0 (mammalian-optimized form^46), and iRFP713 (mammalian-optimized form^36) were PCR amplified using Phusion High-Fidelity DNA Polymerase (NEB) with primers containing 5′ HindIII and 3′ XhoI restriction enzyme sites. HindIII-HF and XhoI (NEB)-digested PCR fragments were gel purified (Zymoclean Gel DNA Recovery Kit) and were ligated (T4 DNA Ligase, Life Technologies) into a similarly digested pCDNA3-IRES-eGFP vector (bicistronic to express two FPs in the same cell). For creation of HO-1-expressing mammalian vec-tors, the Synechocystis HO-1 was used, and the codons were not optimized for mammalian expression. Synechocystis HO-1 was directly amplified from the pBAD vector using primers containing 5′ BsiWI and 3′ XbaI restriction enzyme sites. pCDNA3 smURFP, TDsmURFP, IFP1.4, IFP2.0, or iRFP713-IRES-eGFP vectors were digested with BsiWI and XbaI (NEB), dephosphorylated (SAP, Roche), gel purified (Zymoclean Gel DNA Recovery Kit), and ligated (T4 DNA Ligase, Life Technologies) with similarly digested, purified HO-1 PCR fragment. For creation of smURFP fusions, smURFP was PCR amplified using Phusion High-Fidelity DNA Polymerase (NEB) with primers containing 5′ AgeI and 3′ NotI restriction enzyme sites for N-terminal fusions or with primers containing 5′ AgeI and 3′ BspEI restriction enzyme sites for C-terminal fusions. mGeos2-VEL-ManII-N-10 (Addgene 57551) and Dronpa-PDHA1-N-10 (Addgene 57292) vectors were digested with AgeI and NotI (NEB) and mCherry-αTubulin-C-18 (Addgene 55148) and tdTomato-LaminB1-10 (Addgene 58107) were digested with AgeI and BspEI, dephosphorylated (SAP, Roche), gel purified (Zymoclean Gel DNA Recovery Kit), and ligated (T4 DNA Ligase, Life Technologies) with similarly digested, purified smURFP PCR fragment. HEK293A (Invitrogen, Life Technologies), HT1080 (ATCC), and PC3 (ATCC) cells were grown in Dulbecco's Modified Eagle's medium (DMEM, Corning), supplemented with 10% FBS (Atlanta Biologicals)+1×penicillin—streptomycin (Fisher Scientific), which is referred to as growth media, on poly-D-lysine-coated glass-bottom culture dishes (MatTek, No. P35G-0-14-C). The HEK cell line is listed in the ICLAC and NCBI biosample databases and is commonly misidentified as the HeLa cell line. For expression of exogenous fluorescent proteins, there is no problem if there is a contaminating cell line because no endogenous biology or therapeutic results are being determined. HEK293A cells were purchased from Invitrogen (Life Technologies), and all experiments are derived from the same expanded frozen stock without cell line authentication or mycoplasma detection. Cells were transfected using 2 μg of circular DNA+5 μl Lipofectamine 2000 (Life Technologies) in 2 ml Opti-MEM (Life Technologies) for 4-5 h, transfection media was discarded, and prewarmed growth media was added. Chromophores (5 mM in DMSO) were added at indicated concentrations to growth media, warmed for 10-15 min at 37° C., and added to cells. For multiple timepoints, incubations were staggered to maintain equivalent incubation. Prior to imaging, cells were washed 1×2 ml growth media, 2×2 ml imaging solution, and imaged in 2 ml imaging solution. Fluorescence imaging was performed on a Zeiss Axiovert 200M inverted microscope controlled by SlideBook software. FPs were imaged with the following settings: eGFP, EX/EM=495(10)/535(25) nm, tdTomato EX/EM=540(25)/595(50) nm; mCherry and mCardinal, EX/EM=580(20)/653(95) nm; smURFP and TDsmURFP, EX/EX=628(40)/680(30) nm; and IFP1.4, IFP2.0, and iRFP713, EX/EM=665(45)/725(50) nm. […]

[2] = FP purification and fluorescence characterization in vitro (spectra, extinction coefficient, quantum yield); assay type: physicochemical; settings: for Molecular Brightnes Relative to smURFP / Emission Maximum / Excitation Maximum / Extinction Coefficient / Quantum Yield: Table 4; for Emission Maximum / Excitation Maximum / Extinction Coefficient / Quantum Yield: evolved APCα FPs
Protocol: FP genes were expressed on a pBAD vector (Life Technologies) with a polyhistidine tag on the C terminus, cells were lysed with B-PER (Thermo Scientific), and purified using Ni-NTA (Qiagen) puri-fication. PCB (HO-1+PcyA) and BV (HO-1) incorporation in Escherichia coli was performed simultaneously during constitu-tively active FP expression. Extinction coefficient was determined by PCB or BV absorbance as described35,36 (Table 3, smURFP+BV and TDsmURFP+BV, and Table 2) or calculated for the apoproteins by determining the protein concentration by the BCA protein assay (Pierce), and a specific chromo-phore concentration was added (specified in the Purification of FP lacking chromophore and in vitro chromophore incorporation section) to get 1 and 2 chromophore species (Table 5, not including (Escherichia coli)). When FP chromophore (PCB or BV) was expressed in Escherichia coli, the PCB and BV Q band had absorbance that overlapped with detection of BCA or Bradford assay of 562 nm and 592 nm, respectively. We used the previously published protocols35,36, where there was no change of the BV absorbance at 390 nm when free in solution or attached to the FP. smURFP+BV denaturation with 1 M urea caused no change in the BV absorbance at 390 nm, but the Q band was reduced ˜20-fold. Therefore, the extinction coefficient of BV at 390 nm was used to calculate the concentration of holoprotein (FP+PCB or BV) concentration.
EX and EM spectra were obtained using SPEX Fluorolog fluorometer (Horiba). Absorbance spectra were obtained using UV-VIS Spectrophotometer Cary Eclipse (Varian) or UV-2700 (Shimadzu). Quantum yield was determined relative to Cy5. Incorporation rates of BV on 0.5 μM smURFP was performed by addition of smURFP to PBS alone or with 20% fetal bovine serum (FBS) and mixed by pipetting in a quartz cuvette. Chromophore was added last, mixed by pipetting, and fluorescence was recorded using SPEX Fluorolog fluorometer (Horiba). Photobleaching was characterized on bubbles of purified FP or Cy5 within mineral oil using light from a 150 W xenon arc lamp with 100% light through EX/EM=628(40)/680(30) nm for smURFP, TDsmURFP, and Cy5 or EX/EM=665 (45)/725 (50) nm for IFP 1.4 focused with a 40×, 1.2 numerical aperture C-Apochromat oil-immersion lens on a Zeiss Axiovert 200M inverted microscope. Photobleaching times were normalized to reflect an initial illumination intensity producing 1,000 photons per fluorescent molecule per second as previously described^37.
HO-1 was removed by digesting the pBAD vector (Life Technology) with MscI and PmeI (NEB). smURFP and TDsmURFP were expressed and purified as described above. No chromophore was present on smURFP and TDsmURFP (confirmed by UV, fluorescence imaging, and MS). For predominant fluorescent species+2 chromophores, a ten-fold excess of chromophore was added to smURFP and TDsmURFP. For predominant fluorescent species+1 chromophore, a quarter concentration of chromophore was added to smURFP and TDsmURFP. Chromophore was added in PBS+10% FBS at 37° C. overnight. smURFP+chromophore and TDsmURFP+chromophore were purified using NiNTA (Qiagen) to remove excess or noncovalently attached chromophore.

[3] = tested on: Escherichia coli; test: Fluorescence of FPs expressed in Escherichia coli; assay type: cell-based
Protocol: TeAPCα gene (codons optimized for Escherichia coli) was made by GenScript. Mutations were placed by random mutagenesis using GeneMorphII Random Mutagenesis Kit (Agilent Technologies). Screens for mutants that fluoresce with PCB or BV were performed by subcloning into a pBAD vector (Life Technologies) that expressed cyanobacteria Synechocystis HO-1 and Synechocystis PcyA genes for PCB production and Synechocystis HO-1 only for BV production, as previously described^34. Libraries were expressed in TOP 10 Electrocompetent Escherichia coli cells (Life Technologies) with addition of 0.2% arabinose to LB agar plates (FPs were constitutively expressed in Escherichia coli). Fluorescence was imaged on plates using a BioSpectrum AC Imaging System (UVP) with EX/EM=628(40)/690(50) nm for FPs+PCB, EX/EM=685(40)/710LP nm for rounds 4 and 5 FPs+BV, and EX/EM=650(13)/690(50) nm for Cy5-like FPs+BV (rounds 6-12). At round 6, 5-10 of the brightest colonies on each plate were combined in LB+0.2% arabinose, grown ˜18 h, mixture of plasmid DNA was purified, and TOP10 cells were transformed and plated on LB agar plates+0.2% arabinose. Fluorescence was screened on plates (as described above), 10-20 of the brightest colonies were screened in liquid culture fluorescence (FIG. 7a-e), plasmid DNA was purified, and DNA was sequenced. The plasmid DNA of 2-3 of the brightest FPs was chosen for mutagenesis for the subsequent round. When choosing DNA for subsequent mutagenesis rounds, genes with increased and/or novel silent DNA mutations were chosen over other DNA that had the same DNA and/or protein sequence of the previous round. Site-specific mutagenesis was performed using QuikChange Lightning Mutagenesis Kit (Agilent Technologies) to create smURFP (C4S mutation) and smURFP C52S.

Molecule	chromophore concentration reaching saturation of fluorescence [1] [µM]	chromophore concentration required for fluorescence similar to 2.5 μM BVMe2 [1] [µM]	extinction coefficient (EC) [2]	quantum yield (QY) [2] [%]	red-shift of excitation and emission relative to R3-2+PCB [2] [nm]	Molecular Brightnes Relative to smURFP [2] [%]	Emission Maximum [2] [nm]	Excitation Maximum [2] [nm]	Extinction Coefficient [2]	Quantum Yield [2] [%]	fluorescence when expressed in E. coli (qualitative) [3]	fold brighter than R1+PCB ([3]; expressed in E. coli) [fold]
C=CC1=C(C)/C(=C/C2=NC(=C\c3[nH]c(/C=C4/NC(=O)C(C)=C4C=C)c(C)c3CCC(=O)OC)/C(CCC(=O)OC)=C2C)NC1=O [BVMe2, biliverdin dimethylester, reference compound]	≤ 2.5											
phycocyanobilin [PCB, reference compound]		≥ 40										
R5-2: evolved APCα FP, SEQ ID NO: 6, with BV (protein, biliverdin chromophore; smRUFP Variant Polypeptide) MKTCEQRVKIATLLSENEKKIVDKASQDLWRRRPDFIAPGGIAFSQRERALCLRDHRWYLHLITFCLLAGDKDPIESIGLIGIREMYNSLGVPVPGMMESIRCLKEASLSLLDEEDAKETAPYFDYIIKAMS			71,000 M^−1cm^−1	5.3	~49	12	696	671	71,000 M^−1 cm^−1	5.3		
R6-6: evolved APCα FP, SEQ ID NO: 7, with BV (protein, biliverdin chromophore; smRUFP Variant Polypeptide) MKTCEQRVKIATLLSENEKKIVDKASQDLWRRRPDLIAPGGIAFSQRERALCLRDYGWYLHLITFCLLAGDKGPIESIGLIGIREMYNSLGVPVPGMMESIRCLKEASLSLLDEEDAKETAPYFDYIIKAMS			190,000 M^−1cm^−1	9.6		56	676	648	190,000 M^−1 cm^−1	9.6		
TeAPCα: Trichodesmium erythraeum allophycocyanin α-subunit, nonfluorescent parent protein, SEQ ID NO: 1 (protein, smRUFP Variant Polypeptide) MKTGEQRVKIATLLSENEKKIVDKASQDLWRRRPDFIAPGGNAFGQRERALCLRDYGWYLRLITYGLLAGDKDPIESIGLIGVREMYNSLGVPVPGMVESIRCLKEASLSLLDEEDAKETAPYFDYIIQAMS											showed no fluorescence	
R2-1 + PCB: evolved APCα FP, SEQ ID NO: 3, with PCB (protein, phycocyanobilin chromophore; smRUFP Variant Polypeptide) MKTGEQRVKIATLLSENEKKIVDKASQDLWRRRPDFIAPGGIAFGQRERALCLRDYGWYLRLITFCLLAGDKDPIESIGLIGVREMYNSLGVPVPGMVESIRCLKEASLSLLDEEDAKETAPYFDYIIQAMS			65,000 M^−1cm^−1	7.2		14	648	626	65,000 M^−1 cm^−1	7.2	lacked fluorescence with BV	27
